B1: Hairpin Ribozyme (parent)
chain: GUCCUCUUUCACGUGCGCGUGAAAGAGAGAAGUGAACCAGAGAAACACACGUUGUGGUAUAUUACCUGGUA

The variants in the data set derive from B1. The data set can be described thus: self-cleavage, relative activity (ratio to wild type); higher = more cleavage; co-transcriptional.
For the variant GUCCUCUUUCACUUGCGCGUGAAAGAGAGAAGUGAACCAGAGAAACACACGUUGUGGUAUUUUACCUGGUA [G13U A61U], the self-cleavage amounted to 0.181.

Regarding GUCCUCUUUCACUUGCGCGUGAAAGAGAGAAGUGAACGAGAGAAACACACGUUGUGGUAUAUUACCUGGUA [G13U C38G], the self-cleavage came out at 0.136.

Take GUCCUCUUUCACCUGCGCGUGAAAGAGAGAAGUGAACCAGAGAAACACACUUUGUGGUAUAUUACCUGGUA [G13C G51U]: the self-cleavage was found to be 0.61.

As to GUCCUCUUUCACCUGCGCGUGAAAAAGAGAAGUGAACCAGAGAAACACACGUUGUGGUAUAUUACCUGGUA [G13C G25A], the self-cleavage was 0.448.

With GUCCUCUUUCACCUGCGCGUGAAAUAGAGAAGUGAACCAGAGAAACACACGUUGUGGUAUAUUACCUGGUA [G13C G25U], the self-cleavage worked out at 0.436.

For the variant GUCCUCUUUCACCUACGCGUGAAAGAGAGAAGUGAACCAGAGAAACACACGUUGUGGUAUAUUACCUGGUA [G13C G15A], the self-cleavage was 0.74.

As for GUCCUCUUUCACCUCCGCGUGAAAGAGAGAAGUGAACCAGAGAAACACACGUUGUGGUAUAUUACCUGGUA [G13C G15C], the self-cleavage is 0.541.

In the case of GUCCUCUUUCACCUGCGCGUGAAAGAGAGAAGUGAACCAGAGAAACACACGUUGUGGUAGAUUACCUGGUA [G13C U60G], the self-cleavage was 0.479.

Turning to GUCCUCUUUCACUUGCGCGUGACAGAGAGAAGUGAACCAGAGAAACACACGUUGUGGUAUAUUACCUGGUA [G13U A23C], the self-cleavage came out at 0.557.

Regarding GUCCUCUUUCACCUGCGCGUGAAAGAGAGAAGUGAACCAAAGAAACACACGUUGUGGUAUAUUACCUGGUA [G13C G40A], the self-cleavage was determined as 0.299.

On to GUCCUCUUUCACCUGCGCGUGAAAGAGAGAAGUGAACCACAGAAACACACGUUGUGGUAUAUUACCUGGUA [G13C G40C], for which the self-cleavage amounted to 0.11.

GUCCUCUUUCACCUGCGCGUGAAAGACAGAAGUGAACCAGAGAAACACACGUUGUGGUAUAUUACCUGGUA [G13C G27C]: the self-cleavage came out at 0.161.

On to GUCCUCUUUCACUUGCGCGUGAAAGAGAGAAGUGACCCAGAGAAACACACGUUGUGGUAUAUUACCUGGUA [G13U A36C], for which the self-cleavage was 0.537.

With GUCCUCUUUCACUUGCGCGUGAAAGAGAGAAAUGAACCAGAGAAACACACGUUGUGGUAUAUUACCUGGUA [G13U G32A], the self-cleavage stood at 0.183.

Consider GUCCUCUUUCACCUGCGCGUGAAAGAGAGAAGUGAACCAGAGAAACACACGUUGUGGUAUAUGACCUGGUA [G13C U63G], for which the self-cleavage came to 0.164.

For GUCCUCUUUCACCUGCGCGUGAAAGAGAGAAGUGAACCAGAGAAACACACGUUGUGGUAUAUCACCUGGUA [G13C U63C], the self-cleavage was determined as 0.111.

Consider GUCCUCUUUCACUUGCGCGUGAAAGAGAGAAGUGAACCAGAGAAACACGCGUUGUGGUAUAUUACCUGGUA [G13U A49G], for which the self-cleavage was 0.483.

Take GUCCUCUUUCACUUGCGCGUGAAAGAGAGAAGUGAACCAGAGAAUCACACGUUGUGGUAUAUUACCUGGUA [G13U A45U]: the self-cleavage was determined as 0.136.

For GUCCUCUUUCACUUGCGCGUGAAAGAGAGAAGUGAACCAGGGAAACACACGUUGUGGUAUAUUACCUGGUA [G13U A41G], the self-cleavage worked out at 0.752.

In the case of GUCCUCUUUCACUUGCGCGUGAAAGAGAGAAGUGAACCAGUGAAACACACGUUGUGGUAUAUUACCUGGUA [G13U A41U], the self-cleavage was 1.15.

Consider GUCCUCUUUCACUUGCGCGUGAAACAGAGAAGUGAACCAGAGAAACACACGUUGUGGUAUAUUACCUGGUA [G13U G25C], for which the self-cleavage amounted to 0.274.

On to GUCCUCUUUCACUUGCGGGUGAAAGAGAGAAGUGAACCAGAGAAACACACGUUGUGGUAUAUUACCUGGUA [G13U C18G], for which the self-cleavage stood at 0.722.

Take GUCCUCUUUCACUUGCGCGUGAAAGAGAGAAGUGAACCAGAGAAACACACGUUGUCGUAUAUUACCUGGUA [G13U G56C]: the self-cleavage is 0.12.

For the variant GUCCUCUUUCACUUUCGCGUGAAAGAGAGAAGUGAACCAGAGAAACACACGUUGUGGUAUAUUACCUGGUA [G13U G15U], the self-cleavage stood at 0.941.

With GUCCUCUUUCACUUGCGCGUGAAAGAGAGAAGUGAACCAGAGGAACACACGUUGUGGUAUAUUACCUGGUA [G13U A43G], the self-cleavage was 0.186.

In the case of GUCCUCUUUCACUUGCGCGUGAAAGAGAGAAGUGAACCAGAGUAACACACGUUGUGGUAUAUUACCUGGUA [G13U A43U], the self-cleavage turned out to be 0.127.

Turning to GUCCUCUUUCACCUGCGCGUGAAAGAGAGAAGUGAACCAGAGAAACACACGUGGUGGUAUAUUACCUGGUA [G13C U53G], the self-cleavage turned out to be 0.245.

As for GUCCUCUUUCACCUGCGCGUGAAAGAGAGAAGUGAACCAGAGAAACACACGCUGUGGUAUAUUACCUGGUA [G13C U52C], the self-cleavage worked out at 0.646.

As to GUCCUCUUUCACCUGCGCGUGAAAGAGAGAAGUGAACCAGAGAAACACACGGUGUGGUAUAUUACCUGGUA [G13C U52G], the self-cleavage is 0.76.

Take GUCCUCUUUCACUUGCGCGUGAAAGAGAGAAGUGAACCAGAGAAACACACUUUGUGGUAUAUUACCUGGUA [G13U G51U]: the self-cleavage is 0.887.

As for GUCCUCUUUCACUUGCGCGUGAAAGAGAGAAGUGAACCAGAGAAACACACCUUGUGGUAUAUUACCUGGUA [G13U G51C], the self-cleavage was found to be 0.745.

Turning to GUCCUCUUUCACUUGCGCGUGAAAGAGAGAAGUGAAACAGAGAAACACACGUUGUGGUAUAUUACCUGGUA [G13U C37A], the self-cleavage was determined as 0.249.

Take GUCCUCUUUCACUUGCGCGUGAAAGAGAGAAGUGAAUCAGAGAAACACACGUUGUGGUAUAUUACCUGGUA [G13U C37U]: the self-cleavage was 0.443.

Turning to GUCCUCUUUCACUUGCGCGUGAAAGAGAGAAGUGAAGCAGAGAAACACACGUUGUGGUAUAUUACCUGGUA [G13U C37G], the self-cleavage is 0.384.

On to GUCCUCUUUCACUUGCGCGUGAAAGAGAGAAGUGAACCAGAGAAACACACGUUGUGGUCUAUUACCUGGUA [G13U A59C], for which the self-cleavage amounted to 0.161.

Consider GUCCUCUUUCACUUGCGCGUGAAAGAGAGAAGUGAACCAGAGAAACACACGUUGUGGUUUAUUACCUGGUA [G13U A59U], for which the self-cleavage was found to be 0.181.

As to GUCCUCUUUCACUUGCGCGUGAAAGAGAGAAGUGAACCAGAGAAAAACACGUUGUGGUAUAUUACCUGGUA [G13U C46A], the self-cleavage came to 0.193.

GUCCUCUUUCACUUGCGCGUGUAAGAGAGAAGUGAACCAGAGAAACACACGUUGUGGUAUAUUACCUGGUA [G13U A22U]: the self-cleavage amounted to 0.622.
